Reference: US20170275357A1 (Bristol-Myers Squibb, published 2017)
Where two headings read alike, the source gives them in different places. One block for each binder: values may come before it.

B2: wild-type IL-23 (His-tagged p19 / non-tagged p40) (ligand, human)
chain 1: RAVPGGSSPAWTQCQQLSQKLCTLAWSAHPLVGHMDLREEGDEETTNDVPHIQCGDGCDPQGLRDNSQFCLQRIHQGLIFYEKLLGSDIFTGEPSLLPDSPVGQLHASLLGLSQLLQPEGHHWETQQIPSLSPSQPWQRLLLRFKILRSLQAFVAVAARVFAHGAATLSP
chain 2: IWELKKDVYVVELDWYPDAPGEMVVLTCDTPEEDGITWTLDQSSEVLGSGKTLTIQVKEFGDAGQYTCHKGGEVLSHSLLLLHKKEDGIWSTDILKDQKEPKNKTFLRCEAKNYSGRFTCWWLTTISTDLTFSVKSSRGSSDPQGVTCGAATLSAERVRGDNKEYEYSVECQEDSACPAAEESLPIEVMVDAVHKLKYENYTSSFFIRDIIKPDPPKNLQLKPLKNSRQVEVSWEYPDTWSTPHSYFSLTFCVQVQGKSKREKKDRVFTDKTSATVICRKNASISVRAQDRYYSSSWSEWASVPCS

Legend:
[1] = target: B2; assay: SPR (Biacore T100): hIL-23R-Fc captured on protein A, IL-23 (purified wild-type, and wild-type expression supernatant diluted 1:5) injected 3 min; response 10 s before the end of the injection, reference subtracted
[2] = target: human IL-23Rα/human IL-12Rβ1 on BaF3 transfectants (human, UniProt Q5VWK5 24-629; P42701 24-662); assay: cell-based or functional assay
human IL-17A homodimer [3] = target: T1, human IL-17A homodimer (human, UniProt Q16552 24-155); assay: cell-based or functional assay
human IL-17F homodimer [4] = target: T2, human IL-17F homodimer (human, UniProt Q96PD4 31-163); assay: cell-based or functional assay
T2 sequence: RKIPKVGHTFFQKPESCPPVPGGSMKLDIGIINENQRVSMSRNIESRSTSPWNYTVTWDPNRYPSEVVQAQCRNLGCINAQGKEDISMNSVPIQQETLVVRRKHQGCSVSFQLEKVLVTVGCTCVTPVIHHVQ

[5] = target: T3, human IL-17A/F heterodimer (human, UniProt Q16552 24-155; Q96PD4 31-163); assay: cell-based or functional assay
human IL-17F homodimer [6] = target: T2, human IL-17F homodimer; assay: SPR Biacore T100, captured antibody, bivalent analyte model
human IL-17A homodimer [7] = target: T1, human IL-17A homodimer; assay: cell-based or functional assay; remark: listed apart in the source
human IL-17F homodimer [8] = target: T2, human IL-17F homodimer; assay: cell-based or functional assay; remark: listed apart in the source
[9] = target: T3, human IL-17A/F heterodimer; assay: cell-based or functional assay; remark: listed apart in the source
[10] = target: T3, human IL-17A/F heterodimer; assay: SPR Biacore T100, captured antibody, bivalent analyte model
[11] = target: T3, human IL-17A/F heterodimer; assay: as above; remark: listed apart in the source
human IL-17A homodimer [12] = target: T1, human IL-17A homodimer; assay: cell-based or functional assay; remark: listed apart in the source
human IL-17F homodimer [13] = target: T2, human IL-17F homodimer; assay: cell-based or functional assay; remark: listed apart in the source
[14] = target: T3, human IL-17A/F heterodimer; assay: cell-based or functional assay; remark: listed apart in the source
human IL-17A homodimer [15] = target: T1, human IL-17A homodimer; assay: cell-based or functional assay; remark: listed apart in the source
human IL-17F homodimer [16] = target: T2, human IL-17F homodimer; assay: cell-based or functional assay; remark: listed apart in the source
[17] = target: T3, human IL-17A/F heterodimer; assay: cell-based or functional assay; remark: listed apart in the source
human IL-17F homodimer [18] = target: T2, human IL-17F homodimer; assay: SPR Biacore T100, captured antibody, bivalent analyte model; remark: listed apart in the source
human IL-17A homodimer [19] = target: T1, human IL-17A homodimer; assay: cell-based or functional assay; remark: listed apart in the source
human IL-17F homodimer [20] = target: T2, human IL-17F homodimer; assay: cell-based or functional assay; remark: listed apart in the source
[21] = target: T3, human IL-17A/F heterodimer; assay: cell-based or functional assay; remark: listed apart in the source
human IL-17A homodimer [22] = target: T1, human IL-17A homodimer; assay: cell-based or functional assay; remark: listed apart in the source
human IL-17F homodimer [23] = target: T2, human IL-17F homodimer; assay: cell-based or functional assay; remark: listed apart in the source
[24] = target: T3, human IL-17A/F heterodimer; assay: cell-based or functional assay; remark: listed apart in the source
human IL-17A homodimer [25] = target: T1, human IL-17A homodimer; assay: SPR Biacore T100, captured antibody, bivalent analyte model
human IL-17A homodimer [26] = target: T1, human IL-17A homodimer; assay: as above; remark: listed apart in the source
human IL-17F homodimer [27] = target: T2, human IL-17F homodimer; assay: X-ray co-crystal structure
human PDGF-C = human PDGF-C (human, UniProt Q9NRA1 235-345, limits assumed); assay: cell-based or functional assay
human PDGF-D = human PDGF-D (human, UniProt Q9GZP0 250-370, limits assumed); assay: cell-based or functional assay
Sequence of human PDGF-D (Q9GZP0 250-370 limits assumed): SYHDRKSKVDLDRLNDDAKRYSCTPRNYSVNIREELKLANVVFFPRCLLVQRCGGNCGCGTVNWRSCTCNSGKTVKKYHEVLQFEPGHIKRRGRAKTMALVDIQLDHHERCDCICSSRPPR

Sequence of human PDGF-C (Q9NRA1 235-345 limits assumed): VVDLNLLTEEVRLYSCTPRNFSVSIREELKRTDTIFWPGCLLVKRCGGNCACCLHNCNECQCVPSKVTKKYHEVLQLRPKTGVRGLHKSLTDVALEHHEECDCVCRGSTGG

Binder: B2
EC50, pSTAT3 in BaF3/huIL-23Ra/huIL-12Rb1 transfectants [2]: 21 pM

B5: C/DVCV1 IgG1.1 (bispecific antibody)
heavy: QIQLVQSGPELKKPGETVEISCKASGYTFTDYLIFWVKQAPGKGLNWMGWINTETVEPTYADDFKGRFAFSLETSASTAHLLINNLKKEDTSTYFCARVPHLGPYYYAMDYWGQGTSVTVSSASTKGPSVFPLAPSSKSTSGGTAALGCLVKDYFPEPVTVSWNSGALTSGVHTFPAVLQSSGLYSLSSVVTVPSSSLGTQTYICNVNHKPSNTKVDKKVEPKSCGGGGSGGGGSQVTLKESGPGILQPSQTLSLTCSFSGFSLSTSGMGVGWIRQPSGKGLEWLANIWWDDDKRYNPALKSRLTISKDTSSNQVFLKIASVDTADTATYYCARIDYDYDRGAYHVMDYWGQGTSVTVSSEPKSSDKTHTCPPCPAPEAEGAPSVFLFPPKPKDTLMISRTPEVTCVVVDVSHEDPEVKFNWYVDGVEVHNAKTKPREEQYNSTYRVVSVLTVLHQDWLNGKEYKCKVSNKALPSSIEKTISKAKGQPREPQVYTLPPSRDELTKNQVSLTCLVKGFYPSDIAVEWESNGQPENNYKTTPPVLDSDGSFFLYSKLTVDKSRWQQGNVFSCSVMHEALHNHYTQKSLSLSPGK
light: DIVLKQSPASLGVALGQRATISCRASKSVSTSDFSYMHWYQQKPGQPPELLIYLASNLESGVPARFSGSGSGTDFTLNIHPVEEEDAATYYCQHSREFPPTFGAGTKLELKRTVAAPSVFIFPPSDEQLKSGTASVVCLLNNFYPREAKVQWKVDNALQSGNSQESVTEQDSKDSTYSLSSTLTLSKADYEKHKVYACEVTHQGLSSPVTKSFNRGECGGGGSGGGGSDIQMTQSPASLSVSVGETVTITCRTSENIFSNLAWYQQKQGKSPQLLVYDATNLADGVPSRFSGSGSGTQYSLKINSLQSEDFGTYYCQHFWYTPWTFGGGTKLEIK
IC50, NHLF proliferation (3H-thymidine) (human PDGF-C): 90 pM
IC50, NHLF proliferation (3H-thymidine) (human PDGF-D): 20000 pM

Further lines, results first:

binding result [1]: binds
B1: hIL-23R-Fc (Fc fusion, human, UniProt Q5VWK5 24-353, looked up)
chain: GITNINCSGHIWVEPATIFKMGMNISIYCQAAIKNCQPRKLHFYKNGIKERFQITRINKTTARLWYKNFLEPHASMYCTAECPKHFQETLICGKDISSGYPPDIPDEVTCVIYEYSGNMTCTWNAGKLTYIDTKYVVHVKSLETEEEQQYLTSSYINISTDSLQGGKKYLVWVQAANALGMEESKQLQIHLDDIVIPSAAVISRAETINATVPKTIIYWDSQTTIEKVSCEMRYKATTNQTWNVKEFDTNFTYVQQSEFYLEPNIKYVFQVRCQETGKRYWQPWSSLFFHKTPETVPQVTSKAFQHDTWNSGLTVASISTGHLTSDNRGD
notes: Bought from R&D Systems; also called human IL-23 receptor; p19 specific IL-23 receptor; not shown: Fc part of the commercial fusion (R&D Systems) not described

IC50, NIH/3T3/KZ170 NF-kB luciferase reporter (human IL-17A homodimer [3]): 1300 pM
IC50, NIH/3T3/KZ170 NF-kB luciferase reporter (human IL-17F homodimer [4]): 240 pM
IC50, NIH/3T3/KZ170 NF-kB luciferase reporter [5]: 270 pM
Kd (human IL-17F homodimer [6]): 100 pM
koff (human IL-17F homodimer [6]): 0.0002 s⁻¹
kon (human IL-17F homodimer [6]): 2e+06 M⁻¹ s⁻¹
IC50, NIH/3T3/KZ170 NF-kB luciferase reporter (human IL-17A homodimer [7]): 1400 pM
IC50, NIH/3T3/KZ170 NF-kB luciferase reporter (human IL-17F homodimer [8]): 240 pM
IC50, NIH/3T3/KZ170 NF-kB luciferase reporter [9]: 260 pM
Kd [10]: 200 pM
koff [10]: 0.0005 s⁻¹
kon [10]: 2e+06 M⁻¹ s⁻¹
Kd [11]: 200 pM
koff [11]: 0.0005 s⁻¹
kon [11]: 2e+06 M⁻¹ s⁻¹
IC50, NIH/3T3/KZ170 NF-kB luciferase reporter (human IL-17A homodimer [12]): 3000 pM
IC50, NIH/3T3/KZ170 NF-kB luciferase reporter (human IL-17F homodimer [13]): 400 pM
IC50, NIH/3T3/KZ170 NF-kB luciferase reporter [14]: 900 pM
IC50, G-CSF induction in primary human SAEC (human IL-17A homodimer [15]): 500 pM
IC50, IL-6 induction in primary human fibroblasts (HFFF) (human IL-17A homodimer [15]): 900 pM
IC50, G-CSF induction in primary human SAEC (human IL-17F homodimer [16]): 1100 pM
IC50, IL-6 induction in primary human fibroblasts (HFFF) (human IL-17F homodimer [16]): 15000 pM
IC50, G-CSF induction in primary human SAEC [17]: 1300 pM
IC50, IL-6 induction in primary human fibroblasts (HFFF) [17]: 13000 pM
Kd (human IL-17F homodimer [18]): 100 pM
koff (human IL-17F homodimer [18]): 0.0002 s⁻¹
kon (human IL-17F homodimer [18]): 2e+06 M⁻¹ s⁻¹
IC50, IL-6 induction in primary human fibroblasts (HFFF) (human IL-17A homodimer [19]): 2000 pM
IC50, IL-6 induction in primary human fibroblasts (HFFF) (human IL-17F homodimer [20]): 23000 pM
IC50, IL-6 induction in primary human fibroblasts (HFFF) [21]: 22000 pM
IC50, NIH/3T3/KZ170 NF-kB luciferase reporter (human IL-17A homodimer [22]): 1200 pM
IC50, NIH/3T3/KZ170 NF-kB luciferase reporter (human IL-17F homodimer [23]): 280 pM
IC50, NIH/3T3/KZ170 NF-kB luciferase reporter [24]: 230 pM
Kd (human IL-17A homodimer [25]): 1000 pM
koff (human IL-17A homodimer [25]): 0.003 s⁻¹
kon (human IL-17A homodimer [25]): 2e+06 M⁻¹ s⁻¹
Kd (human IL-17A homodimer [26]): 1000 pM
koff (human IL-17A homodimer [26]): 0.003 s⁻¹
kon (human IL-17A homodimer [26]): 2e+06 M⁻¹ s⁻¹
B3: humanized anti-human IL-17A/F antibody 339-134 mAb IgG1.1 (antibody, V domains shown)
VH: QVQLVQSGAEVKKPGASVKVSCKASGYTFNEYTMHWVKQAPGQRLEWMGGINPNSGGVSYNQNFKGKATLTVDTSASTAYMELSSLRSEDTAVYYCARGGDGYYTNYFDIDYWGQGTTVTVSS
VL: DIQMTQSPSSLSASVGDRVTITCSASSSVNYMHWYQQKPGKVPKLLIYDTSKLASGVPSRFSGSGSGTDFTLTISSLQPEDVATYYCQQWNSHPLTFGQGTKLEIKR
notes: IgG1.1/kappa; also called MVC978/MVC717; humanized parent

binding result (human IL-17F homodimer [27]): binds
B4: Fab derived from the IL-17 arms of biAb3 (Lead Fab A3185F) (Fab, V domains shown)
VH: QVQLVQSGAEVKKPGASVKVSCKASGYTFNEYTMHWVKQAPGQRLEWMGGINPNSGGVSYNQNFKGKATLTVDTSASTAYMELSSLRSEDTAVYYCARGGDGYYTNYFDIDYWGQGTTVTVSS
VL: not shown
notes: Expressed periplasmically in E. coli, purified by IMAC (tag not described); also called humanized lead Fab; biAb Fab
